Source: patent US20130316941A1 (Boehringer Ingelheim, published 2013)
Starred links: 1 amine or outer side, 2 acyl side, 3 side chain; linkers in the order of their positions; H or OH if unused. Non-standard residues stand in square brackets, D forms with d. Groups on a side chain read outwards from the residue. *: point of attachment. γGlu = O=C(O)[C@H](CCC(=O)[*:2])N[*:1]; Palmitoyl = CCCCCCCCCCCCCCCC(=O)*

B1: H-HSHGTFTSDYSRYLDE-K(Hexadecanoyl-isoGlu)-RARDFIEWLLSA-NH2 [Compound 10] (peptide)
peptide: HSHGTFTSDYSRYLDEKRARDFIEWLLSA
HELM: PEPTIDE1{H.S.H.G.T.F.T.S.D.Y.S.R.Y.L.D.E.K.R.A.R.D.F.I.E.W.L.L.S.A.[am]}|PEPTIDE2{[CCCCCCCCCCCCCCCC(=O)[*:2]].[gGlu]}$PEPTIDE1,PEPTIDE2,17:R3-2:R2$$$V2.0
SMILES: CCCCCCCCCCCCCCCC(=O)N[C@@H](CCC(=O)NCCCC[C@H](NC(=O)[C@H](CCC(=O)O)NC(=O)[C@H](CC(=O)O)NC(=O)[C@H](CC(C)C)NC(=O)[C@H](Cc1ccc(O)cc1)NC(=O)[C@H](CCCNC(=N)N)NC(=O)[C@H](CO)NC(=O)[C@H](Cc1ccc(O)cc1)NC(=O)[C@H](CC(=O)O)NC(=O)[C@H](CO)NC(=O)[C@@H](NC(=O)[C@H](Cc1ccccc1)NC(=O)[C@@H](NC(=O)CNC(=O)[C@H](Cc1c[nH]cn1)NC(=O)[C@H](CO)NC(=O)[C@@H](N)Cc1c[nH]cn1)[C@@H](C)O)[C@@H](C)O)C(=O)N[C@@H](CCCNC(=N)N)C(=O)N[C@@H](C)C(=O)N[C@@H](CCCNC(=N)N)C(=O)N[C@@H](CC(=O)O)C(=O)N[C@@H](Cc1ccccc1)C(=O)N[C@H](C(=O)N[C@@H](CCC(=O)O)C(=O)N[C@@H](Cc1c[nH]c2ccccc12)C(=O)N[C@@H](CC(C)C)C(=O)N[C@@H](CC(C)C)C(=O)N[C@@H](CO)C(=O)N[C@@H](C)C(N)=O)[C@@H](C)CC)C(=O)O
B2: H-H-Aib-QGTFTSDYSKYLD-K(Hexadecanoyl-isoGlu)-RRAKDFIEWLLSA-NH2 [Compound 1] (peptide)
peptide: HXQGTFTSDYSKYLDKRRAKDFIEWLLSA
HELM: PEPTIDE1{H.[Aib].Q.G.T.F.T.S.D.Y.S.K.Y.L.D.K.R.R.A.K.D.F.I.E.W.L.L.S.A.[am]}|PEPTIDE2{[CCCCCCCCCCCCCCCC(=O)[*:2]].[gGlu]}$PEPTIDE1,PEPTIDE2,16:R3-2:R2$$$V2.0
SMILES: CCCCCCCCCCCCCCCC(=O)N[C@@H](CCC(=O)NCCCC[C@H](NC(=O)[C@H](CC(=O)O)NC(=O)[C@H](CC(C)C)NC(=O)[C@H](Cc1ccc(O)cc1)NC(=O)[C@H](CCCCN)NC(=O)[C@H](CO)NC(=O)[C@H](Cc1ccc(O)cc1)NC(=O)[C@H](CC(=O)O)NC(=O)[C@H](CO)NC(=O)[C@@H](NC(=O)[C@H](Cc1ccccc1)NC(=O)[C@@H](NC(=O)CNC(=O)[C@H](CCC(N)=O)NC(=O)C(C)(C)NC(=O)[C@@H](N)Cc1c[nH]cn1)[C@@H](C)O)[C@@H](C)O)C(=O)N[C@@H](CCCNC(=N)N)C(=O)N[C@@H](CCCNC(=N)N)C(=O)N[C@@H](C)C(=O)N[C@@H](CCCCN)C(=O)N[C@@H](CC(=O)O)C(=O)N[C@@H](Cc1ccccc1)C(=O)N[C@H](C(=O)N[C@@H](CCC(=O)O)C(=O)N[C@@H](Cc1c[nH]c2ccccc12)C(=O)N[C@@H](CC(C)C)C(=O)N[C@@H](CC(C)C)C(=O)N[C@@H](CO)C(=O)N[C@@H](C)C(N)=O)[C@@H](C)CC)C(=O)O
B3: H-H-Aib-HGTFTSDYSRYLDE-K(Hexadecanoyl-isoGlu)-RARDFIEWLLSA-NH2 [Compound 12] (peptide)
peptide: HXHGTFTSDYSRYLDEKRARDFIEWLLSA
HELM: PEPTIDE1{H.[Aib].H.G.T.F.T.S.D.Y.S.R.Y.L.D.E.K.R.A.R.D.F.I.E.W.L.L.S.A.[am]}|PEPTIDE2{[CCCCCCCCCCCCCCCC(=O)[*:2]].[gGlu]}$PEPTIDE1,PEPTIDE2,17:R3-2:R2$$$V2.0
SMILES: CCCCCCCCCCCCCCCC(=O)N[C@@H](CCC(=O)NCCCC[C@H](NC(=O)[C@H](CCC(=O)O)NC(=O)[C@H](CC(=O)O)NC(=O)[C@H](CC(C)C)NC(=O)[C@H](Cc1ccc(O)cc1)NC(=O)[C@H](CCCNC(=N)N)NC(=O)[C@H](CO)NC(=O)[C@H](Cc1ccc(O)cc1)NC(=O)[C@H](CC(=O)O)NC(=O)[C@H](CO)NC(=O)[C@@H](NC(=O)[C@H](Cc1ccccc1)NC(=O)[C@@H](NC(=O)CNC(=O)[C@H](Cc1c[nH]cn1)NC(=O)C(C)(C)NC(=O)[C@@H](N)Cc1c[nH]cn1)[C@@H](C)O)[C@@H](C)O)C(=O)N[C@@H](CCCNC(=N)N)C(=O)N[C@@H](C)C(=O)N[C@@H](CCCNC(=N)N)C(=O)N[C@@H](CC(=O)O)C(=O)N[C@@H](Cc1ccccc1)C(=O)N[C@H](C(=O)N[C@@H](CCC(=O)O)C(=O)N[C@@H](Cc1c[nH]c2ccccc12)C(=O)N[C@@H](CC(C)C)C(=O)N[C@@H](CC(C)C)C(=O)N[C@@H](CO)C(=O)N[C@@H](C)C(N)=O)[C@@H](C)CC)C(=O)O
B4: H-H-DSer-PGTFTSDYSRYLDE-K(Hexadecanoyl-isoGlu)-RARDFIEWLLSA-NH2 [Compound 14] (peptide)
peptide: HXPGTFTSDYSRYLDEKRARDFIEWLLSA
HELM: PEPTIDE1{H.[dS].P.G.T.F.T.S.D.Y.S.R.Y.L.D.E.K.R.A.R.D.F.I.E.W.L.L.S.A.[am]}|PEPTIDE2{[CCCCCCCCCCCCCCCC(=O)[*:2]].[gGlu]}$PEPTIDE1,PEPTIDE2,17:R3-2:R2$$$V2.0
SMILES: CCCCCCCCCCCCCCCC(=O)N[C@@H](CCC(=O)NCCCC[C@H](NC(=O)[C@H](CCC(=O)O)NC(=O)[C@H](CC(=O)O)NC(=O)[C@H](CC(C)C)NC(=O)[C@H](Cc1ccc(O)cc1)NC(=O)[C@H](CCCNC(=N)N)NC(=O)[C@H](CO)NC(=O)[C@H](Cc1ccc(O)cc1)NC(=O)[C@H](CC(=O)O)NC(=O)[C@H](CO)NC(=O)[C@@H](NC(=O)[C@H](Cc1ccccc1)NC(=O)[C@@H](NC(=O)CNC(=O)[C@@H]1CCCN1C(=O)[C@@H](CO)NC(=O)[C@@H](N)Cc1c[nH]cn1)[C@@H](C)O)[C@@H](C)O)C(=O)N[C@@H](CCCNC(=N)N)C(=O)N[C@@H](C)C(=O)N[C@@H](CCCNC(=N)N)C(=O)N[C@@H](CC(=O)O)C(=O)N[C@@H](Cc1ccccc1)C(=O)N[C@H](C(=O)N[C@@H](CCC(=O)O)C(=O)N[C@@H](Cc1c[nH]c2ccccc12)C(=O)N[C@@H](CC(C)C)C(=O)N[C@@H](CC(C)C)C(=O)N[C@@H](CO)C(=O)N[C@@H](C)C(N)=O)[C@@H](C)CC)C(=O)O
B5: H-H-DSer-HGTFTSDYSRYLDE-K(Hexadecanoyl-isoGlu)-RARDFIEWLLSA-NH2 [Compound 11] (peptide)
peptide: HXHGTFTSDYSRYLDEKRARDFIEWLLSA
HELM: PEPTIDE1{H.[dS].H.G.T.F.T.S.D.Y.S.R.Y.L.D.E.K.R.A.R.D.F.I.E.W.L.L.S.A.[am]}|PEPTIDE2{[CCCCCCCCCCCCCCCC(=O)[*:2]].[gGlu]}$PEPTIDE1,PEPTIDE2,17:R3-2:R2$$$V2.0
SMILES: CCCCCCCCCCCCCCCC(=O)N[C@@H](CCC(=O)NCCCC[C@H](NC(=O)[C@H](CCC(=O)O)NC(=O)[C@H](CC(=O)O)NC(=O)[C@H](CC(C)C)NC(=O)[C@H](Cc1ccc(O)cc1)NC(=O)[C@H](CCCNC(=N)N)NC(=O)[C@H](CO)NC(=O)[C@H](Cc1ccc(O)cc1)NC(=O)[C@H](CC(=O)O)NC(=O)[C@H](CO)NC(=O)[C@@H](NC(=O)[C@H](Cc1ccccc1)NC(=O)[C@@H](NC(=O)CNC(=O)[C@H](Cc1c[nH]cn1)NC(=O)[C@@H](CO)NC(=O)[C@@H](N)Cc1c[nH]cn1)[C@@H](C)O)[C@@H](C)O)C(=O)N[C@@H](CCCNC(=N)N)C(=O)N[C@@H](C)C(=O)N[C@@H](CCCNC(=N)N)C(=O)N[C@@H](CC(=O)O)C(=O)N[C@@H](Cc1ccccc1)C(=O)N[C@H](C(=O)N[C@@H](CCC(=O)O)C(=O)N[C@@H](Cc1c[nH]c2ccccc12)C(=O)N[C@@H](CC(C)C)C(=O)N[C@@H](CC(C)C)C(=O)N[C@@H](CO)C(=O)N[C@@H](C)C(N)=O)[C@@H](C)CC)C(=O)O
B6: H-H-Aib-QGTFTSDYSRYLDE-K(Hexadecanoyl-isoGlu)-RARDFIEWLLSA-NH2 [Compound 9] (peptide)
peptide: HXQGTFTSDYSRYLDEKRARDFIEWLLSA
HELM: PEPTIDE1{H.[Aib].Q.G.T.F.T.S.D.Y.S.R.Y.L.D.E.K.R.A.R.D.F.I.E.W.L.L.S.A.[am]}|PEPTIDE2{[CCCCCCCCCCCCCCCC(=O)[*:2]].[gGlu]}$PEPTIDE1,PEPTIDE2,17:R3-2:R2$$$V2.0
SMILES: CCCCCCCCCCCCCCCC(=O)N[C@@H](CCC(=O)NCCCC[C@H](NC(=O)[C@H](CCC(=O)O)NC(=O)[C@H](CC(=O)O)NC(=O)[C@H](CC(C)C)NC(=O)[C@H](Cc1ccc(O)cc1)NC(=O)[C@H](CCCNC(=N)N)NC(=O)[C@H](CO)NC(=O)[C@H](Cc1ccc(O)cc1)NC(=O)[C@H](CC(=O)O)NC(=O)[C@H](CO)NC(=O)[C@@H](NC(=O)[C@H](Cc1ccccc1)NC(=O)[C@@H](NC(=O)CNC(=O)[C@H](CCC(N)=O)NC(=O)C(C)(C)NC(=O)[C@@H](N)Cc1c[nH]cn1)[C@@H](C)O)[C@@H](C)O)C(=O)N[C@@H](CCCNC(=N)N)C(=O)N[C@@H](C)C(=O)N[C@@H](CCCNC(=N)N)C(=O)N[C@@H](CC(=O)O)C(=O)N[C@@H](Cc1ccccc1)C(=O)N[C@H](C(=O)N[C@@H](CCC(=O)O)C(=O)N[C@@H](Cc1c[nH]c2ccccc12)C(=O)N[C@@H](CC(C)C)C(=O)N[C@@H](CC(C)C)C(=O)N[C@@H](CO)C(=O)N[C@@H](C)C(N)=O)[C@@H](C)CC)C(=O)O

Experiments:
[1] = target: human glucagon receptor (Glucagon-R) (human, UniProt P47871 26-477); test: cell-based or functional assay
Chain of human glucagon receptor (Glucagon-R) (P47871 26-477): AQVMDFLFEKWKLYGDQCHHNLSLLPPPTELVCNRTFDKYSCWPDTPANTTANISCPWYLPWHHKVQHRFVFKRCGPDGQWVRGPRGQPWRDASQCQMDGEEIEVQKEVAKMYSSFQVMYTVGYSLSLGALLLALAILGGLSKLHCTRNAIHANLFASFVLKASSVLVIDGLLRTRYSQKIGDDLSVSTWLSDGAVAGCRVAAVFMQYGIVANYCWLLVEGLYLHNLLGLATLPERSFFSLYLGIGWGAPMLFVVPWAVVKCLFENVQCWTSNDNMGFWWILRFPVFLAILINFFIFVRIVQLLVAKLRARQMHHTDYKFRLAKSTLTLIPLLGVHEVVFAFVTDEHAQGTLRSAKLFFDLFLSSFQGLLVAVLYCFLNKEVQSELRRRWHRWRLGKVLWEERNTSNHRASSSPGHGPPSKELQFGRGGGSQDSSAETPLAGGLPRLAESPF

[2] = target: human glucagon-like peptide 1 receptor (GLP-1R) (human, UniProt P43220 24-463); test: cell-based or functional assay

| Binder | EC50 values for cAMP generation in HEK293 cells expressing Glucagon receptor [1] [nM] | EC50 values for cAMP generation in HEK293 cells expressing GLP-1 receptor [2] [nM] |
| --- | --- | --- |
| B1 | 0.06 | 0.47 |
| B2 | 0.15 | 0.12 |
| B3 | 0.14 | 0.06 |
| B4 | 0.19 | 0.12 |
| B5 | 0.09 | 0.15 |
| H-H[dS]QGTFTSDYSRYLDEK([γGlu-Palmitoyl])RARDFIEWLLSA-NH2 [H-H-DSer-QGTFTSDYSRYLDE-K(Hexadecanoyl-isoGlu)-RARDFIEWLLSA-NH2 [Compound 8]] | 0.2 | 0.2 |
| B6 | 0.1 | 0.05 |
